Assay results as given in paper PMC12339401 (Nature Cell Biology, 2025).

B1: GFP-tagged ATG13 (206–230 aa) (peptide, UniProt O75143 206-230, looked up)
chain: PIMGIIIDHFVDRPYPSSSPMHPCN
notes: ATG13, residues 206-230; Addgene number by the order of printing; also called ATG13 IDR fragment residues 206–230; source: E. coli Rosetta pLysS, purified; not shown: EGFP, N-terminal, kept
B2: GFP-tagged ATG13 IDR Δ191–205 (205–517 aa) (domain or fragment, UniProt O75143 205-517, looked up)
chain: PPIMGIIIDHFVDRPYPSSSPMHPCNYRTAGEDTGVIYPSVEDSQEVCTTSFSTSPPSQLSSSRLSYQPAALGVGSADLAYPVVFAAGLNATHPHQLMVPGKEGGVPLAPNQPVHGTQADQERLATCTPSDRTHCAATPSSSEDTETVSNSSEGRASPHDVLETIFVRKVGAFVNKPINQVTLTSLDIPFAMFAPKNLELEDTDPMVNPPDSPETESPLQGSLHSDGSSGGSSGNTHDDFVMIDFKPAFSKDDILPMDLGTFYREFQNPPQLSSLSIDIGAQSMAEDLDSLPEKLAVHEKNVREFDAFVETLQ
notes: Addgene number by the order of printing; source: E. coli Rosetta pLysS, purified; not shown: EGFP, N-terminal, kept
B3: NIX(1–182)-GST (domain or fragment)
chain: not shown
notes: NIX (BNIP3L), human, cytosol-exposed domain, residues 1-182; transmembrane domain replaced by GST; also called NIX-GST; GST-tagged NIX; source: E. coli Rosetta pLysS, purified; not shown: GST, C-terminal, kept
B4: mCherry-tagged ATG13 IDR (191–517 aa) (domain or fragment, UniProt O75143 191-517, looked up)
chain: INLAFMSTRQFERTPPIMGIIIDHFVDRPYPSSSPMHPCNYRTAGEDTGVIYPSVEDSQEVCTTSFSTSPPSQLSSSRLSYQPAALGVGSADLAYPVVFAAGLNATHPHQLMVPGKEGGVPLAPNQPVHGTQADQERLATCTPSDRTHCAATPSSSEDTETVSNSSEGRASPHDVLETIFVRKVGAFVNKPINQVTLTSLDIPFAMFAPKNLELEDTDPMVNPPDSPETESPLQGSLHSDGSSGGSSGNTHDDFVMIDFKPAFSKDDILPMDLGTFYREFQNPPQLSSLSIDIGAQSMAEDLDSLPEKLAVHEKNVREFDAFVETLQ
notes: also called mCh-IDR; source: E. coli Rosetta pLysS, purified; not shown: mCherry, N-terminal, kept
B5: GFP-tagged ATG13 IDR (191–517 aa) (domain or fragment, UniProt O75143 191-517, looked up)
chain: B4 chain
notes: also called full IDR; full-length IDR; source: E. coli Rosetta pLysS, purified; not shown: EGFP, N-terminal, kept
B6: GFP-tagged ATG13 (191–230 aa) (peptide, UniProt O75143 191-230, looked up)
chain: INLAFMSTRQFERTPPIMGIIIDHFVDRPYPSSSPMHPCN
notes: as for B2

Legend:
Settings in all cases: both partners purified
mCherry-WIPI3 = molecular target: T1, mCherry-WIPI3 (UniProt Q5MNZ6 1-344); assay: microscopy-based bead assay; GFP-tagged bait on GFP-trap agarose beads, mCherry-tagged prey in solution, confocal imaging
T1 construct: 6xHis-TEV-mCherry tag; also called mCherry-tagged WIPI3; source: E. coli Rosetta pLysS, purified; not shown: mCherry, N-terminal, kept

mCherry-tagged WIPI1 = molecular target: T2, mCherry-tagged WIPI1 (UniProt Q5MNZ9 1-446); assay: microscopy-based bead assay; GST-tagged bait on Glutathione Sepharose 4B beads, GFP- or mCherry-tagged prey in solution, confocal imaging
T2 construct: WIPI1; called purified WIPI1-4 in the results
T2 sequence (looked up): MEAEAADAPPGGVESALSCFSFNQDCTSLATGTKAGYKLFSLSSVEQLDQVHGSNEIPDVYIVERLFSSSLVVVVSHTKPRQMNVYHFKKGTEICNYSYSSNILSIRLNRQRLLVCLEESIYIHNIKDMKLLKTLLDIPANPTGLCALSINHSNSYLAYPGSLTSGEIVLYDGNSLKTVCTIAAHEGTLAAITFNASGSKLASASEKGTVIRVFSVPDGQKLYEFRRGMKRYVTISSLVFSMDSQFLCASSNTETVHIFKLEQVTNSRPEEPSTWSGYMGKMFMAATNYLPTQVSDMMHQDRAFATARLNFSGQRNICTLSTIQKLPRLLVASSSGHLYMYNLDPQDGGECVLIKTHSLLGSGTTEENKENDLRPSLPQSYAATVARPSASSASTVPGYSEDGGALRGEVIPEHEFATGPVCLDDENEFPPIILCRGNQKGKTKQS

GST-WIPI3 = GST-WIPI3 (UniProt Q5MNZ6 1-344); assay: as above

| Binder | binding result (mCherry-WIPI3) | further results |
| --- | --- | --- |
| B1 | binds | – |
| B2 | binds | – |
| B3 | – | binding result (mCherry-tagged WIPI1): binds |
| B4 | – | binding result (GST-WIPI3): binds |
| B5 | binds | – |
| B6 | binds | – |
